Entries after “also recorded” stand apart in the source; their conditions may differ.
How the values were obtained:
[1] = tested on: fibroblast-seeded collagen gels; experiment: Collagen gel contraction by fibroblasts; format: cell-based, chicken
Method: 1.5 ml Vitrogen 100 collagen gels were made in 35 mm plates. Secondary fibroblasts were plated at 0.4×10^6 cells/35 mm plate on top of the gels. After the cells had adhered to the collagen, cCAF was added to experimental plates. The medium was replaced approximately every 16 hr with 1 ml of 199 supplemented with 0.3% tryptose phosphate broth and 2% donor calf serum, and 750 ng cCAF [68 nM] or N-peptide [480 nM] was added to the experimental plates. Control plates contained media only. After 4 days, gels were released. Treatment was continued for 2 more days and gels were photographed every 12 hours. The photographs were used for evaluation of gel contraction by determining the area of the gel using NIH image analysis.

α-SMA = experiment: Immunostaining for α-SMA in granulation tissue of excision wounds; format: in vivo, chicken; settings: 1 μg cCAF every other day; versus vehicle
Method: At the specified time points, chickens were euthanized with sodium pentobarbitol. The wounded wings were collected and fixed for 18 hrs in 4% paraformaldehyde and decalcified for 3 days in 5% formic acid, 2.5% formaldehyde at 4° C. The tissue was embedded in paraffin and sectioned. Sections were stained with Masson Trichrome to visualize interstitial collagen. Other sections were immunolabeled for α-SMA. Sections were deparaffinized with 3×15 min washes in Hemo-De and rehydrated in 5 min washes of ethanol (100%, 95%, 70%, 50%, 30%). After rinsing with PBS, sections were fixed in 2% paraformaldehyde 1 hr. General autofluoresence and non-specific staining were blocked by 30 min in 0.1M glycine in PBS, followed by 30 min in 1% Evans Blue in PBS to quench red blood cell autofluorescence. Sections were incubated with α-SMA antibody in 1% BSA in PBS (1:50) for 2 hr at room temperature. After 3×10 min washes in 0.1% BSA in PBS, the sections were incubated for 40 min with anti-mouse Alexa antibody in 1% BSA in PBS (1:200). They were then washed and mounted with Vectashield.

[2] = tested on: chicken CXC receptor 1 (CXCR1); experiment: Chicken cCXCR1-mediated calcium release; format: cell-based; settings: 400 ng
Method: NIH #373 cells overexpressing the chicken CXC receptor 1 (CXCR1) were exposed to the full-length cCAF molecule, the 15-amino N-terminal peptide of cCAF, or the 28-amino acid C-terminal peptide and calcium release was then measured.

α-SMA mRNA = experiment: RT-PCR for α-SMA mRNA in fibroblasts; format: cell-based, chicken
Method: Total RNA for α-SMA was extracted using TRIzol reagent from untreated fibroblasts, fibroblasts treated with 750 ng/ml cCAF or fibroblasts treated for varying periods of time with cCAF. The RT-PCR procedure was performed using the Promega Access RT-PCR System, which is designed to finish reverse transcription (RT) and polymerase chain reaction (PCR) in one tube, and following the protocol recommended by Promega, except that 1.5 times the recommended amount of dNTP, reverse transcriptase and Tfl DNA polymerase were used to ensure strong synthesis of 18S ribosomal RNA. The reaction conditions included: 1 μg total RNA, first strand synthesis at 48° C. for 45 min, then 95° C. for 5 min to inactivate the reverse transcriptase, followed by DNA amplification at 95° C. for 45 sec, 58° C. for 60 sec, 68° C. for 90 sec for 40 cycles. Finally, 68° C. for 7 min to extent the strands. 2 μl of Quantum mRNA classic 18S primers (Ambion) were added to reaction to produce the control band. The followin primers used for the amplification of α-SMA: […]
RT-PCR products were analyzed by electrophoresis in 1.5% agarose and the density of the bands was measured by densitometry using Glyko BandScan.

[3] = tested on: primary chicken embryonic connective tissue fibroblasts; experiment: Acridine orange/ethidium bromide staining for apoptotic cells; format: cell-based; settings: cCAF-treated fibroblasts
Method: Plates of fibroblasts treated with cCAF as described above were rinsed twice with PBS and incubated in 0.1 mg/ml acridine orange/ethidium bromide in PBS for 1 min. After rinsing twice with PBS and adding a cover slip, the cells were immediately viewed by epifluorescence microscopy and random fields were photographed. The number of cells with blebbing cytoplasm and fragmented nuclei were counted from the entire field of each photograph.

B1: cCAF: CXC chemokine chicken Chemotactic and Angiogenic Factor, full-length, SEQ ID NO:2; purified or synthesized (protein)
chain: LSQGRTLVKMGNELRCQCISTHSKFIHPKSIQDVKLTPSGPHCKNVEIIATLKDGREVCLDPTAPWVQLIVKALMAKAQLNSDAPL
modifications: Gallusgallus
notes: purified or synthesized
- contraction of collagen gels after release ([1]; 750 ng/ml, 4-5 days treatment before release, versus untreated cells): much greater contraction; also recorded: stimulated fibroblasts to contract collagen gels more efficiently than untreated cells; also recorded: contracted the gels more tightly than did untreated cells
- contraction of fibroblast clusters on collagen ([1]; versus control cells): form clusters that are much tighter and generally pull away from the collagen; also recorded: more contracted than clusters in control cells
- cells labeling for α-SMA in granulation tissue, day 3 (α-SMA): numerous cells labeling for α-SMA; also recorded: many more cells that label for α-SMA
- cells labeling for α-SMA in granulation tissue, day 5 (α-SMA): many more myofibroblasts than the control wounds; also recorded: many more cells staining for α-SMA
- cells labeling for α-SMA in granulation tissue, day 7 (α-SMA): continue to have more labeled cells than do control wounds
- time to calcium release [2]: ≤ 1 min
- calcium release ([2]; NIH #373 cells overexpressing chicken CXCR1): induced a rapid (within 1 min.) release of calcium
- time by which α-SMA mRNA drops below control levels (α-SMA mRNA; 750 ng/ml cCAF): ≤ 24 h
- time to increase in α-SMA mRNA levels (α-SMA mRNA; 750 ng/ml cCAF): ≤ 1 h
- time α-SMA mRNA levels remain elevated after treatment (α-SMA mRNA; 750 ng/ml cCAF): up to 12 hr
- period with increasing amounts of α-SMA mRNA relative to control (α-SMA mRNA; after initiation of treatment, normalized to 18S rRNA): 1 to 12 h
- apoptotic morphology (cytoplasmic blebbing, nuclear fragmentation) [3]: do not show the characteristics of apoptotic cells; also recorded: compact cytoplasm and an intact nucleus characteristic of healthy cells
